Measurements published in patent US20200079833A1 (AstraZeneca / MedImmune, published 2020).
Starred links: 1 amine or outer side, 2 acyl side, 3 side chain; linkers in the order of their positions; H or OH if unused. Non-standard residues stand in square brackets, D forms with d. Groups on a side chain read outwards from the residue. Primed or numbered codes have the meaning given here. No end group written: not given here. *: point of attachment. γGlu = O=C(O)[C@H](CCC(=O)[*:2])N[*:1]; Stearoyl = CCCCCCCCCCCCCCCCCC(=O)*; αMeF = C[C@](N)(Cc1ccccc1)C(=O)O; αMeK = C[C@](N)(CCCCN)C(=O)O; αMeS = C[C@](N)(CO)C(=O)O; PEG2′ = not defined here; Aib = CC(C)(N)C(=O)O

T1: glucose-dependent insulinotropic peptide (gastric inhibitory polypeptide) receptor (human, UniProt P48546 22-466)
T1 sequence (looked up): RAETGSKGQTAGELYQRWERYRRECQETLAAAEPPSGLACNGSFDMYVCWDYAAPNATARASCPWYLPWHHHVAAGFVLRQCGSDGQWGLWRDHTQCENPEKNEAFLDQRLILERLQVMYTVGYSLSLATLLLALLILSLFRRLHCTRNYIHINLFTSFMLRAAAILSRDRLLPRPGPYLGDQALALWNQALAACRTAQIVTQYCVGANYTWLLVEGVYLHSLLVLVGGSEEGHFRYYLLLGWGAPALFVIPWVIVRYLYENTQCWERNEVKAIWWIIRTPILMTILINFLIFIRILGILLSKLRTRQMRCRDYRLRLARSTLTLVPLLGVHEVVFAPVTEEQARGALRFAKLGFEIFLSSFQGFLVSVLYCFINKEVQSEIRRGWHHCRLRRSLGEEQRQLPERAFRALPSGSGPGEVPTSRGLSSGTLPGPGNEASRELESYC

B1: SEQ ID NO 9 (peptide)
peptide: H[Aib]EGS[αMeF]SSEVSS[αMeF]LEGEAA[αMeK]E[αMeF]IA[αMeF]VV[αMeK]GG-NH2
modifications: N-terminus assumed
SMILES: CC[C@H](C)[C@H](NC(=O)[C@](C)(Cc1ccccc1)NC(=O)[C@H](CCC(=O)O)NC(=O)[C@](C)(CCCCN)NC(=O)[C@H](C)NC(=O)[C@H](C)NC(=O)[C@H](CCC(=O)O)NC(=O)CNC(=O)[C@H](CCC(=O)O)NC(=O)[C@H](CC(C)C)NC(=O)[C@](C)(Cc1ccccc1)NC(=O)[C@H](CO)NC(=O)[C@H](CO)NC(=O)[C@@H](NC(=O)[C@H](CCC(=O)O)NC(=O)[C@H](CO)NC(=O)[C@H](CO)NC(=O)[C@](C)(Cc1ccccc1)NC(=O)[C@H](CO)NC(=O)CNC(=O)[C@H](CCC(=O)O)NC(=O)C(C)(C)NC(=O)[C@@H](N)Cc1c[nH]cn1)C(C)C)C(=O)N[C@@H](C)C(=O)N[C@@](C)(Cc1ccccc1)C(=O)N[C@H](C(=O)N[C@H](C(=O)N[C@@](C)(CCCCN)C(=O)NCC(=O)NCC(N)=O)C(C)C)C(C)C

Target: GLP-1 receptor (human, UniProt P43220 24-463)
Experiment: cell-based or functional assay

Row | Binder | Primary assay EC50 (cAMP), Mean pM GLP-1R [pM] | Primary assay EC50 (cAMP), n1 [nM] | Primary assay EC50 (cAMP), n2 [nM]
1 | H[Aib]EGS[αMeF]TSDVSK([PEG2′-PEG2′-PEG2′-Stearoyl])YLEGEAA[Aib]E[αMeF]IA[αMeF]VVEGG-NH2 [SEQ ID NO 63] | 2.9 | 0.00321 | 0.00255
2 | H[Aib]EGS[αMeF]TSDVSK([PEG2′-PEG2′-PEG2′-Stearoyl])YLEGEAA[αMeK]E[αMeF]IA[αMeF]VVEGG-NH2 [SEQ ID NO 64] | 1.3 | 0.0014 | 0.0012
3 | H[Aib]EGS[αMeF]TSDVSK([PEG2′-PEG2′-γGlu-Stearoyl])YLEGEAA[Aib]E[αMeF]IA[αMeF]VVEGG-NH2 [SEQ ID NO 59] | 211 | 0.243 | 0.179
4 | B1 | 1200 | 1.2 | 1.2
5 | H[Aib]EGS[αMeF]TSDVSK([PEG2′-PEG2′-PEG2′-Stearoyl])YLEGEAAKE[αMeF]IA[αMeF]VVEGG-NH2 [SEQ ID NO 61] | 0.9 | 0.00085 | 0.00091
6 | H[Aib]EGS[αMeF]TSDV[αMeS]S[αMeF]LEGEAA[Aib]EFIK([PEG2′-PEG2′-γGlu-Stearoyl])WVVEGG-NH2 [SEQ ID NO 67] | 60.1 | 0.0721 | 0.048
7 | H[Aib]EGS[αMeF]TSDV[αMeS]S[αMeF]LEGEAAAEFIK([PEG2′-PEG2′-γGlu-Stearoyl])WVVEGG-NH2 [SEQ ID NO 69] | 53 | 0.0661 | 0.0399

Target: glucagon receptor (human, UniProt P47871 26-477)
Experiment: cell-based or functional assay

Chain of glucagon receptor (P47871 26-477): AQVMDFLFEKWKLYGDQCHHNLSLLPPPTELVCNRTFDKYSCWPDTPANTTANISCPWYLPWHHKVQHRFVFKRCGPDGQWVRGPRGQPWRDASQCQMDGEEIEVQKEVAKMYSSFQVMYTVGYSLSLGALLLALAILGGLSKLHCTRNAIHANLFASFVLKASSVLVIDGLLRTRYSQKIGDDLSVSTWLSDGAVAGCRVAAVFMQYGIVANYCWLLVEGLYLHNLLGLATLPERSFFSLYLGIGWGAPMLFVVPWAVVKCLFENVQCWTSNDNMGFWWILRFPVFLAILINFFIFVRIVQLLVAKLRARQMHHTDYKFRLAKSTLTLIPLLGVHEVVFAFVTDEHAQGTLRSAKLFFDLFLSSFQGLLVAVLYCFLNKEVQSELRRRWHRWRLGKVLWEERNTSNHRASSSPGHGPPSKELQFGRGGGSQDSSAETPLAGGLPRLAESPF

Row | Binder | Primary assay EC50 (cAMP), n1 [nM] | Primary assay EC50 (cAMP), n2 [nM]
8 | H[Aib]EGS[αMeF]TSDVSK([PEG2′-PEG2′-PEG2′-Stearoyl])YLEGEAA[Aib]E[αMeF]IA[αMeF]VVEGG-NH2 [SEQ ID NO 63] | 25.7 | 25.7
9 | H[Aib]EGS[αMeF]TSDVSK([PEG2′-PEG2′-PEG2′-Stearoyl])YLEGEAA[αMeK]E[αMeF]IA[αMeF]VVEGG-NH2 [SEQ ID NO 64] | 25 | 25
10 | H[Aib]EGS[αMeF]TSDVSK([PEG2′-PEG2′-γGlu-Stearoyl])YLEGEAA[Aib]E[αMeF]IA[αMeF]VVEGG-NH2 [SEQ ID NO 59] | 25.6 | 25.6
11 | B1 | 29 | 29
12 | H[Aib]EGS[αMeF]TSDVSK([PEG2′-PEG2′-PEG2′-Stearoyl])YLEGEAAKE[αMeF]IA[αMeF]VVEGG-NH2 [SEQ ID NO 61] | 25 | 25
13 | H[Aib]EGS[αMeF]TSDV[αMeS]S[αMeF]LEGEAA[Aib]EFIK([PEG2′-PEG2′-γGlu-Stearoyl])WVVEGG-NH2 [SEQ ID NO 67] | 25.4 | 25.4
14 | H[Aib]EGS[αMeF]TSDV[αMeS]S[αMeF]LEGEAAAEFIK([PEG2′-PEG2′-γGlu-Stearoyl])WVVEGG-NH2 [SEQ ID NO 69] | 25.5 | 25.5

Target: T1, glucose-dependent insulinotropic …
Experiment: cell-based or functional assay

Row | Binder | Primary assay EC50 (cAMP), n1 [nM] | Primary assay EC50 (cAMP), n2 [nM]
15 | H[Aib]EGS[αMeF]TSDVSK([PEG2′-PEG2′-PEG2′-Stearoyl])YLEGEAA[Aib]E[αMeF]IA[αMeF]VVEGG-NH2 [SEQ ID NO 63] | 25.7 | 25.7
16 | H[Aib]EGS[αMeF]TSDVSK([PEG2′-PEG2′-PEG2′-Stearoyl])YLEGEAA[αMeK]E[αMeF]IA[αMeF]VVEGG-NH2 [SEQ ID NO 64] | 25 | 25
17 | H[Aib]EGS[αMeF]TSDVSK([PEG2′-PEG2′-γGlu-Stearoyl])YLEGEAA[Aib]E[αMeF]IA[αMeF]VVEGG-NH2 [SEQ ID NO 59] | 25.6 | 25.6
18 | B1 | 29 | 29
19 | H[Aib]EGS[αMeF]TSDVSK([PEG2′-PEG2′-PEG2′-Stearoyl])YLEGEAAKE[αMeF]IA[αMeF]VVEGG-NH2 [SEQ ID NO 61] | 25 | 25
20 | H[Aib]EGS[αMeF]TSDV[αMeS]S[αMeF]LEGEAA[Aib]EFIK([PEG2′-PEG2′-γGlu-Stearoyl])WVVEGG-NH2 [SEQ ID NO 67] | 25.4 | 25.4
21 | H[Aib]EGS[αMeF]TSDV[αMeS]S[αMeF]LEGEAAAEFIK([PEG2′-PEG2′-γGlu-Stearoyl])WVVEGG-NH2 [SEQ ID NO 69] | 25.5 | 25.5
